Assay [1] has as its target human IgG1 antibody (#I5154; Sigma-Aldrich) (human). Put plainly: SPR, single cycle kinetics, IgG1 chip. A general note: In SPR one partner is held on a chip, and binding of the other changes the refractive index at the surface.
Assay [2] has as its target human IgG2 antibody (#I5404; Sigma-Aldrich) (human). Put plainly: ELISA. (In general: ELISA stands for enzyme-linked immunosorbent assay.)
Assay [3] has as its target human IgG4 antibody (#I4639; Sigma-Aldrich) (human). Nature of the assay: ELISA.
For assay [4], the target named is human serum-derived IgG polyclonal antibody (#I4506; Sigma-Aldrich) (human). Put plainly: ELISA.
Assay [5] concerns the target human IgG3 antibody (#I5654; Sigma-Aldrich) (human). Put plainly: ELISA.
In assay [6] the target is human IgG1 antibody (#I5154; Sigma-Aldrich) (human). Nature of the assay: ELISA.
Assay [7] has as its target human serum-derived IgG polyclonal antibody (#I4506; Sigma-Aldrich) (human). Nature of the assay: SPR, lysate, human IgG chip.
Assay [8] deals with human serum-derived IgA polyclonal antibody (#I4036; Sigma-Aldrich) (human). Put plainly: ELISA.

B1: R1-27 rabbit-derived single-chain antibody-His (scFv)
scFv: QQQLMESGGGLVTPGTPLTLTCTVSGIDLRRYAMGWVRQAPGKGLQWIGIIASGNTDYASWAKGRFTISATSTTVDLKITSSTTEDTATYFCARYSGDNGGTLNLWGPGTLATVTTGGGGSGGGGSGGGGSELVMTQTAASVSEPVGGTVTIKCQASEHIRNYLAWYQQKPGQPPKLLIYTTSNLASGVPSRFSGSGSGTEYTLTISDLECADAATYYCQNYYDISTYGNTFGGGTEVDVKGSHHHHHH
As a reminder, the Kd is the equilibrium constant for the complex coming apart. A higher Kd goes with weaker binding. As usually defined, the koff is a measure of how fast the partners let go of each other. The low end stands for a long-lived complex, the high end for a short-lived complex. Usually kon stands for the second-order rate constant of association. Regarding B1, in assay [1], the Kd worked out at 40 nM, the off-rate constant (koff) came out at 0.0004 s⁻¹ and the kon turned out to be 9900 M⁻¹ s⁻¹.

B2: R3-26 (scFv, not shown: small tags and cut ends)
scFv: QEQLVESGGGLVKPGGTLTLTCTVSGIDLSSYAMSWVRQVPGKGLEWIGIIGSGGGTAYANWAKGRFTISKTSSTTVDLKMTSLTTEDTATYFCATDYGIYGYAYGHLWGPGTLVTVTSGGGGSGGGGSGGGGSELVMTQTASPVSAAVGGTVTIKCQASQSISTALAWYQQRPGQPPKLLIYDASTLASGVSSRFKGSGSGTEFTLTISDLECADAATYYCQTYFGSDTDNAFGEGTEVEITGS
In the case of B2, the OD in assay [2] was determined as 3.04; in assay [3], 3.16; in assay [4], 3.1; in assay [5] it was 3.14; in assay [6], 3.1. The molecule also gave a koff in assay [7] of 0.000571 s⁻¹.

B3: R2-18 (scFv, not shown: small tags and cut ends)
scFv: QSLEESGGRLVTPGTPLTLTCTVSGIDLSSNAMTWVRQAPGEGLEWIGTISTGGSTYFASWAKGRFTISKTSTTVDLKITSPTTEDTATYFCATRYDSYGYAYNYWFGTLWGPGTLVTVTSGGGGSGGGGSGGGGSELVMTQTAASVSEPVGGTVTIKCQASQNINNELAWYQQKPGQRPKLLIYDASKLASGVPSRFSGSGSGTEFTLTISGMQCDDAATYYCQSTYYDGNYVYAFGGGTEVDVKGS
On to B3, for which the values for the OD in assay [8], in assay [5] and in assay [6] were 3.11, 3.08 and 3.11, respectively. Besides, in assay [7], the koff is 0.0008 s⁻¹.

B4: R3-8 (scFv, not shown: small tags and cut ends)
scFv: QSLEESGGRLVTPGTPLTLTCTVSGIDLSSNAMTWVRQAPGEGLEWIGTISTGGSTYFASWAKGRFTISKTSTTVDLKITSPTTEDTATYFCATRYDSYGYAYNYWFGTLWGPGTLVTVTSGGGGSGGGGSGGGGSELVMTQTAASVSEPVGGTVTINCQASQSISDELAWYQQKPGQRPKLLIYDASDLASGVPSRFSGSGSGTEFTLTISGVQCDDAATYYCQSAYYDGRYVYAFGGGTEVEVTGS
With B4, the OD was determined as 3.06 in assay [8]; 3.02 in assay [2]; 3.09 in assay [3]; 3.01 in assay [4]; 3.06 in assay [5]; 3.03 in assay [6]. This molecule also displayed a koff in assay [7] of 0.00088 s⁻¹.

B5: R3-75 (scFv, not shown: small tags and cut ends)
scFv: QSVKESGGRLVTPGTPLTLTCTVSGIDLSSNAMSWVRQAPGEGLEWIGTISTVGKTYFASWAKGRFTISKTSTTVDLRITSPTTEDTATYFCATRYDSYGYAYNYWFGTLWGPGTLVTVTSGGGGSGGGGSGGGGSELDLTQTPPSVSGAVGGTVTIKCQASENINSELAWYQQKPGQRPKLLIYDASKLASGVPSRFSGSGSGTEYTLTISGMQCDDAATYYCQSTYYDGNYVYAFGGGTEVDVTRS
On to B5, for which the OD in assay [8] is 3.06; in assay [2], 3.04; in assay [3], 3.11; in assay [4], 3.01; in assay [5], 3.12; in assay [6] it was 3.05. The koff in assay [7] turned out to be 0.000278 s⁻¹.

B6: R3-75 rabbit-derived single-chain antibody-His (scFv)
scFv: QSVKESGGRLVTPGTPLTLTCTVSGIDLSSNAMSWVRQAPGEGLEWIGTISTVGKTYFASWAKGRFTISKTSTTVDLRITSPTTEDTATYFCATRYDSYGYAYNYWFGTLWGPGTLVTVTSGGGGSGGGGSGGGGSELDLTQTPPSVSGAVGGTVTIKCQASENINSELAWYQQKPGQRPKLLIYDASKLASGVPSRFSGSGSGTEYTLTISGMQCDDAATYYCQSTYYDGNYVYAFGGGTEVDVTRSHHHHHH
In assay [1], B6 displayed a Kd of 0.55 nM, a koff of 3.7e-05 s⁻¹ and a kon of 67000 M⁻¹ s⁻¹.

B7: R2-16 rabbit-derived single-chain antibody-His (scFv)
scFv: QSVKESGGRLVTPGTPLTLTCTVSGFSLSSYAMGWVRQAPGKGLEYIGIISSSGSTYYASWAKGRFTISKTSTTVDLKITSPTTEDTATYFCARYSGDNGGALNLWGPGTLVTVTSGGGGSGGGGSGGGGSELDLTQTAASVSEPVGGTVTISCQSSQHIRSYLAWYQQKPGQPPKLLISAASTLASGVSSRFKGSGSGTEFTLTISDLECADAATYYCQRYYDIRNYGNGFGGGTEVEITGSHHHHHH
In assay [1], B7 yielded a Kd of 2.5 nM, a koff of 0.00032 s⁻¹ and a kon of 130000 M⁻¹ s⁻¹.

B8: R3-58 (scFv, not shown: small tags and cut ends)
scFv: QQQLMESGGRLVTPGGSLTLTCTVSGIDLNSYAMGWVRQAPGKGLEYIGIIRNSGNTYYASWAKGRFTISKTSSTTVDLKMTSLTTEDTATYFCARYSGDNGGALNLWGPGTLVTVTSGGGGSGGGGSGGGGSELVMTQTAASVSGPVGGTVTIKCQASEFIRNYLAWYQQKPGQPPKLLIYTTSNLASGVPSRFSGSGSGTEYTLTISDLECADAATYYCQNYYDISTYGNAFGGGTEVVVIKGS
On to B8, for which the OD stood at 3.08 in assay [2]; 3.17 in assay [3]; 3.05 in assay [4]; 3.11 in assay [5]; 3.14 in assay [6]. Besides, in assay [7], the koff came to 0.000742 s⁻¹.

B9: R1-7 (scFv, not shown: small tags and cut ends)
scFv: QSLEESGGRLVTPGTPLTLTCTVSGIDLRRYAMGWVRQAPGKGLQWIGIIASGNTDYASWAKGRFTISATSTTVDLKITSPTTEDTATYFCARYSGDNGGTLNLWGPGTLVTVTSGGGGSGGGGSGGGGSELVMTQTAASVSEPVGGTVTIKCQASQSISSYLAWYQQKPGQPPKLLIYAASNLASGVSSRFKGSGSGTEFTLTISDLECADAATYYCQSYYSISSYGNTFGGGTEVEITGS
In the case of B9, the OD in assay [6] was determined as 3.12. For the same molecule, the koff in assay [7] is 0.00175 s⁻¹.

B10: R1-27 (scFv, not shown: small tags and cut ends)
scFv: QQQLMESGGGLVTPGTPLTLTCTVSGIDLRRYAMGWVRQAPGKGLQWIGIIASGNTDYASWAKGRFTISATSTTVDLKITSSTTEDTATYFCARYSGDNGGTLNLWGPGTLATVTTGGGGSGGGGSGGGGSELVMTQTAASVSEPVGGTVTIKCQASEHIRNYLAWYQQKPGQPPKLLIYTTSNLASGVPSRFSGSGSGTEYTLTISDLECADAATYYCQNYYDISTYGNTFGGGTEVDVKGS
For B10, the figures for the OD in assay [5] and in assay [6] were 3.08 and 3.07, respectively. Further, in assay [7], the koff amounted to 0.000859 s⁻¹.

B11: R3-23 (scFv, not shown: small tags and cut ends)
scFv: QSVKESEGRLVTPGTPLTLTCTVSGFSLSRYAVSWVRQAPGKGLEWIGIIGSGGSTSYATWARGRFTISKTSTTVDLKITSPTTEDTVTYFCGSYYDSHGYAYVSLWGPGTLVTVTSGGGGSGGGGSGGGGSELVLTQTPSPVSGAVGGTVTINCQASQSISTALAWYQQKPGQPPKLLIYSASTLASGVSSRFKGSGSGTGFTLTISDLECADAATYYCQSYYGSSSDNAFGGGTEVVIKRS
In the case of B11, the OD in assay [2] was 3.06; in assay [3] it was 3.06; in assay [4] it was 3.04; in assay [5], 3.02; in assay [6] it was 3.06. In assay [7], this molecule registered a koff of 0.000408 s⁻¹.

B12: R3-23 rabbit-derived single-chain antibody-His (scFv)
scFv: QSVKESEGRLVTPGTPLTLTCTVSGFSLSRYAVSWVRQAPGKGLEWIGIIGSGGSTSYATWARGRFTISKTSTTVDLKITSPTTEDTVTYFCGSYYDSHGYAYVSLWGPGTLVTVTSGGGGSGGGGSGGGGSELVLTQTPSPVSGAVGGTVTINCQASQSISTALAWYQQKPGQPPKLLIYSASTLASGVSSRFKGSGSGTGFTLTISDLECADAATYYCQSYYGSSSDNAFGGGTEVVIKRSHHHHHH
In assay [1], B12 registered a Kd of 11 nM, a koff of 0.00013 s⁻¹ and a kon of 11000 M⁻¹ s⁻¹.

B13: R2-16 (scFv, not shown: small tags and cut ends)
scFv: QSVKESGGRLVTPGTPLTLTCTVSGFSLSSYAMGWVRQAPGKGLEYIGIISSSGSTYYASWAKGRFTISKTSTTVDLKITSPTTEDTATYFCARYSGDNGGALNLWGPGTLVTVTSGGGGSGGGGSGGGGSELDLTQTAASVSEPVGGTVTISCQSSQHIRSYLAWYQQKPGQPPKLLISAASTLASGVSSRFKGSGSGTEFTLTISDLECADAATYYCQRYYDIRNYGNGFGGGTEVEITGS
In the case of B13, the OD in assay [5] is 3.05; in assay [6], 3.12. This molecule registered a koff in assay [7] of 0.000838 s⁻¹.

B14: R2-18 rabbit-derived single-chain antibody-His (scFv)
scFv: QSLEESGGRLVTPGTPLTLTCTVSGIDLSSNAMTWVRQAPGEGLEWIGTISTGGSTYFASWAKGRFTISKTSTTVDLKITSPTTEDTATYFCATRYDSYGYAYNYWFGTLWGPGTLVTVTSGGGGSGGGGSGGGGSELVMTQTAASVSEPVGGTVTIKCQASQNINNELAWYQQKPGQRPKLLIYDASKLASGVPSRFSGSGSGTEFTLTISGMQCDDAATYYCQSTYYDGNYVYAFGGGTEVDVKGSHHHHHH
On to B14, for which, in assay [1], the Kd is 4.8 nM, the koff was determined as 0.00012 s⁻¹ and the kon worked out at 25000 M⁻¹ s⁻¹.

B15: R1-7 rabbit-derived single-chain antibody-His (scFv)
scFv: QSLEESGGRLVTPGTPLTLTCTVSGIDLRRYAMGWVRQAPGKGLQWIGIIASGNTDYASWAKGRFTISATSTTVDLKITSPTTEDTATYFCARYSGDNGGTLNLWGPGTLVTVTSGGGGSGGGGSGGGGSELVMTQTAASVSEPVGGTVTIKCQASQSISSYLAWYQQKPGQPPKLLIYAASNLASGVSSRFKGSGSGTEFTLTISDLECADAATYYCQSYYSISSYGNTFGGGTEVEITGSHHHHHH
Regarding B15, in assay [1], the Kd was 24 nM, the koff is 0.0017 s⁻¹ and the kon is 71000 M⁻¹ s⁻¹.

For the origin of these results see patent publication US20180327803A1.
